# Measurements: paper PMC5537066, “Dimerization facilitates the conformational transitions for bacterial phosphotransferase enzyme I autophosphorylation in an allosteric manner” (FEBS Open Bio, 2017)
# B1: C-terminal domain of enzyme I with the G356S mutation, EIC(G356S) (domain or fragment)
# chain: not shown
# notes: C-terminal dimerization domain (EIC) of enzyme I, E. coli, residues 231-575, with G356S; also called EIC(G365S) (misprint in the text); source: E. coli BL21star (DE3), purified (DEAE or HisTrap, Superdex, monoQ)
# B2: C-terminal domain of enzyme I, EIC(231-575) (domain or fragment)
# chain: not shown
# notes: C-terminal dimerization domain (EIC) of enzyme I, E. coli, residues 231-575, includes part of the connecting helix 231-260; source: E. coli BL21star (DE3), purified (DEAE or HisTrap, Superdex, monoQ)
# B3: Enzyme I (EI) with the active site H189A mutation, EI(1-575, H189A) (enzyme)
# chain: not shown
# notes: Enzyme I (EI) of the bacterial phosphotransferase system, E. coli, full length EI(1-575), with H189A; also called EIA; EI(H189A); source: E. coli BL21star (DE3), purified (DEAE or HisTrap, Superdex, monoQ)
# B4: Enzyme I with the H189A and G356S mutations, EIA(G356S) (enzyme)
# chain: not shown
# notes: Enzyme I (EI) of the bacterial phosphotransferase system, E. coli, full length EI(1-575), with H189A and G356S; also called EI(G356S); source: E. coli BL21star (DE3), purified (DEAE or HisTrap, Superdex, monoQ)
# What was measured:
# [1] = molecular target: the molecule itself; assay: SEC-MALS; 200 uM protein injected on a WTC-0303 column, buffer A with 10 mM PEP, 25 °C; dimer to monomers
# [2] = molecular target: the molecule itself; assay: SEC-MALS; 200 uM protein injected on a WTC-0303 column, buffer A (20 mM Tris/HCl pH 7.4, 100 mM NaCl, 2 mM β-mercaptoethanol, 4 mM MgCl2), 25 °C, without PEP; 50 uM elution concentration; KD (dimer to monomers) estimated from the dimer fraction, semiquantitative
protein,measurement,setting,value
B1,percent dimer,[1],~80%
same,Kd,[2],≥ 5 µM
same,stoichiometry N,[2],2
B2,stoichiometry N,[2],2
B3,percent dimer,[1],> 90%
same,Kd,[2],~0.4 µM
same,stoichiometry N,[2],2
B4,percent dimer,[1],> 90%
same,stoichiometry N,[1],2
same,Kd,[2],~30 µM
